Measurements: paper PMC3077074

Target: Helicobacter hepaticus Group III 2/2 hemoglobin (Hh Hb), wild type (Helicobacter hepaticus ATCC51449)
Experiment: NMR 15N relaxation

stoichiometry N: > 2
Substance: Helicobacter hepaticus Group III 2/2 hemoglobin (Hh Hb), wild type (natural protein)
